# Source: paper PMC10040874
# B1: Drosophila melanogaster PRL (wild-type) [D. melanogaster] / Drosophila melanogaster CNNM CBS-pair domain, GST-tagged [D. melanogaster] (parent)
# chain 1: MSITMRQKDLRPAPALIEYKGMKFLITDRPSDITINHYIMELKKNNVNTVVRVCEPSYNTDELETQGITVKDLAFEDGTFPPQQVVDEWFEVLKDKYQQNPEACVAVHCVAGLGRAPVLVALALIELGLKYEAAVEMIRDKRRGAINAKQLSFLEKYKPKARLKHKNGHKNSCSVQ
# chain 2: VNIISGALELRKKTVADVMTHINDAFMLSLDALLDFETVSEIMNSGYSRIPVYDGDRKNIVTLLYIKDLAFVDTDDNTPLKTLCEFYQNPVHFVFEDYTLDIMFNQFKEGTIGHIAFVHRVNNEGDGDPFYETVGLVTLEDVIEELIQAEIVDE
# Variants of: B1
# Assay: ITC
# Details: with Drosophila melanogaster CNNM CBS-pair domain, 16 µM CNNM titrated with 160 µM PRL
row,Kd,Variant
1,0.6 µM,chain 1 C109D
2,7.5 µM,chain 1 R143E
